# In publication PMC8473176:
# B1: his-AtHEN1 (recombinant full-length Arabidopsis HEN1) (enzyme)
# chain: MAGGGKHTPTPKAIIHQKFGAKASYTVEEVHDSSQSGCLGLAIPQKGPCLYRCHLQLPEFSVVSNVFKKKKDSEQSAAELALDKLGIRPQNDDLTVDEARDEIVGRIKYIFSDEFLSAEHPLGAHLRAALRRDGERCGSVPVSVIATVDAKINSRCKIINPSVESDPFLAISYVMKAAAKLADYIVASPHGLRRKNAYPSEIVEALATHVSDSLHSREVAAVYIPCIDEEVVELDTLYISSNRHYLDSIAERLGLKDGNQVMISRMFGKASCGSECRLYSEIPKKYLDNSSDASGTSNEDSSHIVKSRNARASYICGQDIHGDAILASVGYRWKSDDLDYDDVTVNSFYRICCGMSPNGIYKISRQAVIAAQLPFAFTTKSNWRGPLPREILGLFCHQHRLAEPILSSSTAPVKSLSDIFRSHKKLKVSGVDDANENLSRQKEDTPGLGHGFRCEVKIFTKSQDLVLECSPRKFYEKENDAIQNASLKALLWFSKFFADLDVDGEQSCDTDDDQDTKSSSPNVFAAPPILQKEHSSESKNTNVLSAEKRVQSITNGSVVSICYSLSLAVDPEYSSDGESPREDNESNEEMESEYSANCESSVELIESNEEIEFEVGTGSMNPHIESEVTQMTVGEYASFRMTPPDAAEALILAVGSDTVRIRSLLSERPCLNYNILLLGVKGPSEERMEAAFFKPPLSKQRVEYALKHIRESSASTLVDFGCGSGSLLDSLLDYPTSLQTIIGVDISPKGLARAAKMLHVKLNKEACNVKSATLYDGSILEFDSRLHDVDIGTCLEVIEHMEEDQACEFGEKVLSLFHPKLLIVSTPNYEFNTILQRSTPETQEENNSEPQLPKFRNHDHKFEWTREQFNQWASKLGKRHNYSVEFSGVGGSGEVEPGFASQIAIFRREASSVENVAESSMQPYKVIWEWKKEDVEKKKTDL
# Target: GST-HC-Pro^K (HC-Pro of turnip mosaic virus, FRNK motif mutated to FKNK) (turnip mosaic virus (TuMV))
# Assay: pull-down; 2 μg bait (GST-HC-Pro^R or GST-HC-Pro^K) and 2 μg prey (his-AtHEN1) in 50 mM Tris-HCl pH 7.5, 100 mM NaCl, 0.2% glycerol, 0.6% Triton X-100, 0.5 mM β-mercaptoethanol; 25 °C, 2 h; Glutathione Sepharose 4B; blot with α-His or α-GST
binder,measurement,value
B1,fold pull-down signal,0.2 to 0.3 fold
